The assay addresses GpA G83I. The assay can be described thus: TOXCAT. Particulars: parent: est. 100; read off a plot.

From publication PMC4106346, “The Oligomeric States of the Purified Sigma-1 Receptor Are Stabilized by Ligands” (The Journal of Biological Chemistry, 2014) come the findings set out here.

For “glycophorin A transmembrane control of the TOXCAT assay G83I”, the response came to 6.3 %GpA.
